# B1: NRG: NRG having the sequence of SEQ ID NO:1, which corresponds to amino acids 177-237 of human NRG-1 (protein, listed as Homo sapiens)
# chain: SHLVKCAEKEKTFCVNGGECFMVKDLSNPSRYLCKCPNEFTGDRCQNYVMASFYKAEELYQ
# Tests used:
# [1] = test system: cardiomyocytes from myocardial infarcted rats; assay: Relaxation of cardiomyocytes isolated from myocardial infarcted rats treated with neuregulin by osmotic pump; type: in vivo, rat; details: myocytes from MI rats treated with neuregulin compared with MI rats treated with vehicle
# Procedure: Wistar male rats (Shanghai Animal Center of Chinese Academy of Science), which weighed 200±20 g, were anesthetized by intraperitoneally injecting 100 mg/kg (drug/body weight) of ketamine. The neck and chest were depilated and sanitized. An incision Was made in the middle front neck to expose the tracheae. An 18G catheter overneedle was inserted into the tracheae between the 3rd and 5th cartilage of tracheae. After the needle was drawn out, a plastic cannula was pushed into the trachea 1-2 cm and fixed to connect the Rodent Ventilator (SAR-830/P ventilator—Inspiratory flow rate, 1 ml/100 g/breath; Respiratory rate, 60 breaths/min). Another incision was made on the left front chest. The skin was blunt dissected to expose the fourth and fifth rib, then the fourth rib was cut by elbowed mosquito forceps. The ventilator (as described above) was linked to the cannula and turned on, and the heart was exposed to check the status of lung and heart. The pericardium was rived off to identify the left atria and the pulmonary arterious cone after the heart was exteriorized through the incision. The left ventricle anterior descending coronary artery between them was ligated tight with 6/0 medical suture before the heart was replaced into the thorax. The thoracic wall was stitched. The ventilator was blocked to full fill the lung. […]
# [2] = test system: patients with stable chronic heart failure; assay: Haemodynamics in patients with stable chronic heart failure after continuous intravenous infusion of neuregulin; type: in vivo, human; details: 0.2 μg/kg/hour i.v. infusion for 6 hours
# Procedure: 6 patients with stable chronic heart failure were treated with continuous intravenous infusion of neuregulin at 0.2 μg/kg/hour (drug weight/body weight/hour) for 6 hours. A baseline right heart catheterisation was performed and Swan Ganz catheter left in situ to monitor haemodynamics for 24 hours.
molecule,measurement,setting,value
B1,"relaxation of myocytes (time to relax to half of the maximum length, FIG. 1)",[1],relax much faster
same,increase of average cardiac output,[2]; 2 hours after infusion vs baseline 3.7±1.0 L/min,29.7%
same,systemic vascular resistance (SVR),[2]; after infusion (baseline 1679.3±336.3),1199.5±127.6 dynes-sec-cm^−5
same,average cardiac output,[2]; at 2 hours after infusion (baseline 3.7±1.0),4.8 ± 0.8 L/min
same,fall of systemic vascular resistance (SVR),[2]; vs baseline 1679.3±336.3,29%

# From patent US20200031892A1, “COMPOSITION COMPRISING NEUREGULIN FOR ORGAN PERFUSION, PRESERVATION OR REPERFUSION, AND USE THEREOF” (Zensun (Shanghai) Science & Technology, Co., Ltd., priority 2007, published 2020)
